The source of these data is article PMC10897158.

Holding throughout (conditions): remark: other sources report otherwise
Experiment [1] has as its target T1, E2 ubiquitin-conjugating enzyme USE1 (endogenous, wild type) (human (endogenous in HEK293T, human fibroblasts and iPSC-derived neurons)), Q9H832.
T1 chain: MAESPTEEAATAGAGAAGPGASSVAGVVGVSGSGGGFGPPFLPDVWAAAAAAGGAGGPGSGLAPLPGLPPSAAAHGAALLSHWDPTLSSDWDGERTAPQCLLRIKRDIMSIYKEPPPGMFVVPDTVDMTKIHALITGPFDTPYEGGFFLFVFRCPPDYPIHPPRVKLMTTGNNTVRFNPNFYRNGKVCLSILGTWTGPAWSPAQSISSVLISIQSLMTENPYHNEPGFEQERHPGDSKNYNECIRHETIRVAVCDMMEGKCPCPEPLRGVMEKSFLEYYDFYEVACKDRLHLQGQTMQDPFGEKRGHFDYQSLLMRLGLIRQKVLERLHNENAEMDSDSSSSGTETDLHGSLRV
Description: FRET or BRET; FLIM-FRET (two-photon FLIM) in fixed WT and USE1 ΔPolyAla KO HEK293T cells; endogenous USE1 and UBA6 stained, secondary antibodies Alexa 488 (donor, USE1) and Alexa 555 (acceptor, UBA6); lifetime of donor only minus donor and acceptor.

Experiment [2] has as its target T1, E2 ubiquitin-conjugating enzyme USE1 …. Put plainly: FRET or BRET; FLIM-FRET (two-photon FLIM) in iPSC-derived autonomic neurons of CCHS patients (PHOX2B polyalanine expansion); endogenous USE1 (donor, Alexa 488) and UBA6 (acceptor, Alexa 555); lifetime of donor only minus donor and acceptor.
For experiment [3] the target is unchanged. Put plainly: FRET or BRET; FLIM-FRET (two-photon FLIM) in iPSC-derived autonomic neurons of healthy controls; endogenous USE1 (donor, Alexa 488) and UBA6 (acceptor, Alexa 555); lifetime of donor only minus donor and acceptor.

B1: E1 ubiquitin-activating enzyme UBA6 (endogenous), A0AVT1 1-1052 (enzyme)
chain: MEGSEPVAAHQGEEASCSSWGTGSTNKNLPIMSTASVEIDDALYSRQRYVLGDTAMQKMAKSHVFLSGMGGLGLEIAKNLVLAGIKAVTIHDTEKCQAWDLGTNFFLSEDDVVNKRNRAEAVLKHIAELNPYVHVTSSSVPFNETTDLSFLDKYQCVVLTEMKLPLQKKINDFCRSQCPPIKFISADVHGIWSRLFCDFGDEFEVLDTTGEEPKEIFISNITQANPGIVTCLENHPHKLETGQFLTFREINGMTGLNGSIQQITVISPFSFSIGDTTELEPYLHGGIAVQVKTPKTVFFESLERQLKHPKCLIVDFSNPEAPLEIHTAMLALDQFQEKYSRKPNVGCQQDSEELLKLATSISETLEEKPDVNADIVHWLSWTAQGFLSPLAAAVGGVASQEVLKAVTGKFSPLCQWLYLEAADIVESLGKPECEEFLPRGDRYDALRACIGDTLCQKLQNLNIFLVGCGAIGCEMLKNFALLGVGTSKEKGMITVTDPDLIEKSNLNRQFLFRPHHIQKPKSYTAADATLKINSQIKIDAHLNKVCPTTETIYNDEFYTKQDVIITALDNVEARRYVDSRCLANLRPLLDSGTMGTKGHTEVIVPHLTESYNSHRDPPEEEIPFCTLKSFPAAIEHTIQWARDKFESSFSHKPSLFNKFWQTYSSAEEVLQKIQSGHSLEGCFQVIKLLSRRPRNWSQCVELARLKFEKYFNHKALQLLHCFPLDIRLKDGSLFWQSPKRPPSPIKFDLNEPLHLSFLQNAAKLYATVYCIPFAEEDLSADALLNILSEVKIQEFKPSNKVVQTDETARKPDHVPISSEDERNAIFQLEKAILSNEATKSDLQMAVLSFEKDDDHNGHIDFITAASNLRAKMYSIEPADRFKTKRIAGKIIPAIATTTATVSGLVALEMIKVTGGYPFEAYKNCFLNLAIPIVVFTETTEVRKTKIRNGISFTIWDRWTVHGKEDFTLLDFINAVKEKYGIEPTMVVQGVKMLYVPVMPGHAKRLKLTMHKLVKPTTEKKYVDLTVSFAPDIDGDEDLPGPPVRYYFSHDTD
Take B1: the difference in fluorescence lifetime (donor only to donor and acceptor) in experiment [1] turned out to be 0.099 ns. The results for the difference in fluorescence lifetime (donor only minus donor and acceptor) in experiment [2] and in experiment [3] were 0.025 and 0.253, respectively.
